The source of these data is publication PMC4933460, “Extracellular Regulation of Bone Morphogenetic Protein Activity by the Microfibril Component Fibrillin-1*” (The Journal of Biological Chemistry, 2016).

To fix the notation:
B1: BMP-7 growth factor (GF) dimer (ligand, UniProt P18075 293-431, looked up)
chain: STGSKQRSQNRSKTPKNQEALRMANVAENSSSDQRQACKKHELYVSFRDLGWQDWIIAPEGYAAYYCEGECAFPLNSYMNATNHAIVQTLVHFINPETVPKPCCAPTQLNAISVLYFDDSSNVILKKYRNMVVRACGCH
notes: The same GF is a component of the BMP-7 complex m23; also called BMP-7 GF; mature growth factor; source: stably transfected HEK293 EBNA cells; separated from the purified BMP-7 complex in 8 M urea, 1 M NaCl by chelating chromatography (flow-through)
B2: BMP-7 prodomain, full-length PD (residues 30-292), E. coli (domain or fragment)
chain: not shown
notes: also called full-length BMP-7 PD; source: E. coli, purified by chelating chromatography; not shown: His6, C-terminal, kept
B3: BMP-7 PD variant 218-292 (domain or fragment, UniProt P18075 218-292, looked up)
chain: ASEEGWLVFDITATSNHWVVNPRHNLGLQLSVETLDGQSINPKLAGLIGRHGPQNKQPFMVAFFKATEVHFRSIR
notes: also called Ala218-Arg292; source: E. coli, purified by chelating chromatography
B4: BMP-7 prodomain of the HEK293 EBNA cell-expressed BMP-7 complex (domain or fragment)
chain: not shown
notes: Glycosylated (carbohydrate chains absent in the E. coli preparation); also called PD; BMP-7 PD; source: stably transfected HEK293 EBNA cells, purified as part of the BMP-7 complex (chelating chromatography, gel filtration)
B5: BMP-7 PD truncation variant 74-292 (domain or fragment)
chain: not shown
notes: source: E. coli, purified by chelating chromatography
B6: BMP-7 PD variant 30-217 (domain or fragment)
chain: not shown
notes: BMP-7 prodomain, residues 30-217 of the BMP-7 precursor; source: E. coli, purified by chelating chromatography
B7: BMP-7 PD variant 241-292 (domain or fragment, UniProt P18075 241-292, looked up)
chain: HNLGLQLSVETLDGQSINPKLAGLIGRHGPQNKQPFMVAFFKATEVHFRSIR
notes: as for B5
B8: BMP-7 PD variant 30-184 (domain or fragment)
chain: not shown
notes: BMP-7 prodomain, residues 30-184 of the BMP-7 precursor; source: E. coli, purified by chelating chromatography

For data set [1], the target named is B2. As to the kind of experiment: SPR; E. coli-derived full-length PD (30-292) immobilised, GF flown over in HBS-EP with 1 M urea; apparent KD = kd/ka. The note with it: both partners purified.
The target of data set [2] is B2. As to the kind of experiment: SPR; 1,000 RU of BMP-7 PD immobilised, 0-80 nM GF injected in sodium acetate buffer pH 4.5, 0.15 M NaCl, 3 mM EDTA, 0.005% P20; apparent KD. The note with it: both partners purified.
Data set [3] deals with B2. As to the kind of experiment: SPR; BIAcore 2000; BMP-7 GF covalently coupled to a CM5 chip (500 RU), PD variants flown over in HBS-EP pH 7.4 with 1 M urea; 1:1 model with mass transfer; apparent KD = kd/ka. The conditions noted are these: both partners purified.
The target in data set [4] is T1, BMP-7 PD truncation variant 48-292 (UniProt P18075 48-292).
T1 construct: source: E. coli, purified by chelating chromatography; not shown: His6, C-terminal, kept
The description is as above. The note with it: both partners purified.

In data set [5] the target is T2, BMP-7 PD truncation variant 55-292 (UniProt P18075 55-292).
T2 construct: source: E. coli, purified by chelating chromatography
The description is as above. The conditions noted are these: both partners purified.

The target of data set [6] is T3, BMP-7 PD truncation variant 65-292 (UniProt P18075 65-292).
T3 construct: source: E. coli, purified by chelating chromatography
The description is as above. The conditions noted are these: both partners purified.

The target in the next data set is T4, BMP-7 PD (30-292) H66A (UniProt P18075 30-292, H66A).
T4 construct: source: E. coli, purified by chelating chromatography; not shown: His6, C-terminal, kept
As to the kind of experiment: ELISA; sandwich ELISA of reconstitution in solution: PD variants dialysed with the GF in TBS with 1 M urea overnight, captured by coated monoclonal anti-His6 antibody (C-terminal His6 of the PD), GF detected with an anti-GF antibody. The note with it: both partners purified.

For another data set, the target named is T5, BMP-7 PD (30-292) R67A (UniProt P18075 30-292, R67A).
T5 construct: source: E. coli, purified by chelating chromatography; not shown: His6, C-terminal, kept
The description is as above. The note with it: both partners purified.

In the next data set the target is T6, BMP-7 PD (30-292) P68A (UniProt P18075 30-292, P68A).
T6 construct: source: E. coli, purified by chelating chromatography; not shown: His6, C-terminal, kept
The description is as above. The note with it: both partners purified.

Data set [7] concerns the target T7, rF87, N-terminal fragment of fibrillin-1 (Ser19-Ile329) (UniProt P35555 19-329).
T7 construct: The sentence of the methods may also give rF87 the tandem C-terminal Strep-tag; it cannot be told; also called fibrillin-1 (rF87); N-terminal end of fibrillin-1
As to the kind of experiment: SPR; PD variants immobilised at 500-800 RU, rF87 injected at 0-80 nM in HBS-EP (no urea); apparent KD. The note with it: both partners purified. On the technique in general: SPR reads the build-up and loss of mass on a sensor chip optically.

Data set [8] concerns the molecule itself. The data set is described as follows: SPR; PD/PD interaction: 500-800 RU of full-length PD (30-292) or truncated variants (48-292, 55-292) immobilised, 0-320 nM PD variants injected in HBS-EP with 1 M urea; apparent KD.
Data set [9] concerns the target B2. The data set is described as above. The note with it: both partners purified.
Data set [10] concerns the molecule itself. The data set is described as follows: velocity sedimentation in sucrose gradients; 10 μg BMP-7 complex dialysed against TBS with 1 M urea, 5-20% sucrose gradient, 28 fractions, Western blots for PD and GF. (In general: A western blot detects proteins with antibodies after separation by electrophoresis.)

T7 sequence (P35555 19-329): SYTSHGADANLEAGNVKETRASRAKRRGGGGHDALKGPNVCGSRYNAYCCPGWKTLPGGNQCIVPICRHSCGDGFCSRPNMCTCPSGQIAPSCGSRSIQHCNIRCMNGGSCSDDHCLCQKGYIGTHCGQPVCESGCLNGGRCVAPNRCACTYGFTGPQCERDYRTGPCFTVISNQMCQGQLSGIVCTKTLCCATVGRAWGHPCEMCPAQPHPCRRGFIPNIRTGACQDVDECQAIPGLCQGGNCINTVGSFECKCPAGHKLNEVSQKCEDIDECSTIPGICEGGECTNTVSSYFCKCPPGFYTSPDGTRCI

Turning to B1, the Kd in data set [1] came to 31.5 ± 0.2 nM; in [2] it was 20 ± 0.1 nM; in data set [3], 19.4 nM; in data set [4], 19 ± 1 nM; in data set [5] it was 15 ± 3 nM; in data set [6], 8 ± 1 nM. For the same molecule, the figures for the “percent inhibition of complex formation” value with BMP-7 PD (30-292) H66A, in the data set with BMP-7 PD (30-292) R67A and in the data set with BMP-7 PD (30-292) P68A were 30%, around 65% and around 65%, respectively.

Consider B2, for which the results for the Kd in [7] and in [8] were 32 ± 7 nM and 3 ± 0.01 nM, respectively.

For B3, in [9], the Kd is 26.8 ± 3.1 nM.

As for B4, the “stoichiometry N” value in [10] was 2.

For B5, the Kd in [7] turned out to be 26 ± 4 nM.

Take B6: the Kd in data set [7] was 27 ± 6 nM.

For the molecule B7, the Kd in data set [9] stood at 39.1 ± 3.3 nM.

Take B8: the Kd in data set [7] was 38 ± 3 nM.

As usually defined, the stoichiometry N is a count of units in the complex or per binding partner.
